Laboratory results from the supplement of paper PMC9112550, “Optimization of the antimicrobial peptide Bac7 by deep mutational scanning” (BMC Biology, 2022).

Tested on: Escherichia coli TOP10
Assay: shrunken log2 fold change of peptide-encoding DNA abundance (4.5 h post-induction vs induction); higher = less antimicrobial activity (less host growth inhibition)
Conditions: time post-induction: 4.5 h; library: site-saturation at positions 5, 18, 19, 20
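Further: peptides expressed intracellularly from a pBAD plasmid library in pooled LB shake-flask culture, induced with 0.3% L-arabinose, DNA abundance read by NGS, three biological replicates, DESeq2 with apeglm shrinkage.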

RRIRIRPPRLPRPRPRPFMKPRP
shrunken log2 fold change: -0.127

RRIRIRPPRLPRPRPRPFPMPRP
shrunken log2 fold change: -0.412

RRIRIRPPRLPRPRPRPFPSPRP
shrunken log2 fold change: -0.953

RRIRIRPPRLPRPRPRPFQHPRP
shrunken log2 fold change: -0.214

RRIRIRPPRLPRPRPRPFSEPRP
shrunken log2 fold change: -0.315

RRIRIRPPRLPRPRPRPFSTPRP
shrunken log2 fold change: -0.38

RRIRIRPPRLPRPRPRPFTHPRP
shrunken log2 fold change: -0.182

RRIRIRPPRLPRPRPRPFVWPRP
shrunken log2 fold change: -0.157

RRIRIRPPRLPRPRPRPFYDPRP
shrunken log2 fold change: -0.202

RRIRIRPPRLPRPRPRPFYGPRP
shrunken log2 fold change: 0.0259

RRIRIRPPRLPRPRPRPFYPPRP
shrunken log2 fold change: -0.776

RRIRIRPPRLPRPRPRPGAIPRP
shrunken log2 fold change: -0.0678

RRIRIRPPRLPRPRPRPGAQPRP
shrunken log2 fold change: -0.0304

RRIRIRPPRLPRPRPRPGATPRP
shrunken log2 fold change: -0.0576

RRIRIRPPRLPRPRPRPGGEPRP
shrunken log2 fold change: -0.063

RRIRIRPPRLPRPRPRPGHMPRP
shrunken log2 fold change: 0.0184

RRIRIRPPRLPRPRPRPGIEPRP
shrunken log2 fold change: -0.154

RRIRIRPPRLPRPRPRPGINPRP
shrunken log2 fold change: -0.603

RRIRIRPPRLPRPRPRPGISPRP
shrunken log2 fold change: -0.27

RRIRIRPPRLPRPRPRPGKAPRP
shrunken log2 fold change: 0.039

RRIRIRPPRLPRPRPRPGKKPRP
shrunken log2 fold change: 0.0847

RRIRIRPPRLPRPRPRPGKWPRP
shrunken log2 fold change: 0.0539

RRIRIRPPRLPRPRPRPGPIPRP
shrunken log2 fold change: -0.329

RRIRIRPPRLPRPRPRPGPTPRP
shrunken log2 fold change: 0.175

RRIRIRPPRLPRPRPRPGQAPRP
shrunken log2 fold change: -0.0154

RRIRIRPPRLPRPRPRPGQMPRP
shrunken log2 fold change: -0.0223

RRIRIRPPRLPRPRPRPGRIPRP
shrunken log2 fold change: 0.0431

RRIRIRPPRLPRPRPRPGRSPRP
shrunken log2 fold change: 0.0764

RRIRIRPPRLPRPRPRPGSKPRP
shrunken log2 fold change: -0.0906

RRIRIRPPRLPRPRPRPGSTPRP
shrunken log2 fold change: -0.549

RRIRIRPPRLPRPRPRPGTMPRP
shrunken log2 fold change: -0.112

RRIRIRPPRLPRPRPRPGVYPRP
shrunken log2 fold change: -0.39

RRIRIRPPRLPRPRPRPHATPRP
shrunken log2 fold change: -0.0163

RRIRIRPPRLPRPRPRPHAYPRP
shrunken log2 fold change: -0.549

RRIRIRPPRLPRPRPRPHCTPRP
shrunken log2 fold change: -0.0502

RRIRIRPPRLPRPRPRPHFDPRP
shrunken log2 fold change: -0.149

RRIRIRPPRLPRPRPRPHIAPRP
shrunken log2 fold change: -0.957

RRIRIRPPRLPRPRPRPHIGPRP
shrunken log2 fold change: -0.17

RRIRIRPPRLPRPRPRPHKIPRP
shrunken log2 fold change: -0.462

RRIRIRPPRLPRPRPRPHKRPRP
shrunken log2 fold change: -0.169

RRIRIRPPRLPRPRPRPHKTPRP
shrunken log2 fold change: -0.000475

RRIRIRPPRLPRPRPRPHLFPRP
shrunken log2 fold change: -0.359

RRIRIRPPRLPRPRPRPHLVPRP
shrunken log2 fold change: -0.573

RRIRIRPPRLPRPRPRPHMIPRP
shrunken log2 fold change: -0.602

RRIRIRPPRLPRPRPRPHNLPRP
shrunken log2 fold change: -0.334

RRIRIRPPRLPRPRPRPHQAPRP
shrunken log2 fold change: -0.0342

RRIRIRPPRLPRPRPRPHQNPRP
shrunken log2 fold change: -0.165

RRIRIRPPRLPRPRPRPHQQPRP
shrunken log2 fold change: -0.132

RRIRIRPPRLPRPRPRPHQTPRP
shrunken log2 fold change: 0.0701

RRIRIRPPRLPRPRPRPHRMPRP
shrunken log2 fold change: -1.01

RRIRIRPPRLPRPRPRPHRWPRP
shrunken log2 fold change: -0.0221

RRIRIRPPRLPRPRPRPHWVPRP
shrunken log2 fold change: -0.0146

RRIRIRPPRLPRPRPRPIAGPRP
shrunken log2 fold change: -0.017

RRIRIRPPRLPRPRPRPIAIPRP
shrunken log2 fold change: -0.257

RRIRIRPPRLPRPRPRPIANPRP
shrunken log2 fold change: -0.0104

RRIRIRPPRLPRPRPRPICFPRP
shrunken log2 fold change: -0.152

RRIRIRPPRLPRPRPRPIDKPRP
shrunken log2 fold change: -0.364

RRIRIRPPRLPRPRPRPIFWPRP
shrunken log2 fold change: 0.397

RRIRIRPPRLPRPRPRPIGCPRP
shrunken log2 fold change: -0.00783

RRIRIRPPRLPRPRPRPIGQPRP
shrunken log2 fold change: -0.0062

RRIRIRPPRLPRPRPRPIHAPRP
shrunken log2 fold change: -0.00674

RRIRIRPPRLPRPRPRPIIAPRP
shrunken log2 fold change: -0.389

RRIRIRPPRLPRPRPRPIIQPRP
shrunken log2 fold change: -0.455

RRIRIRPPRLPRPRPRPIKHPRP
shrunken log2 fold change: -0.571

RRIRIRPPRLPRPRPRPIKIPRP
shrunken log2 fold change: -0.0548

RRIRIRPPRLPRPRPRPIKSPRP
shrunken log2 fold change: -0.462

RRIRIRPPRLPRPRPRPIKVPRP
shrunken log2 fold change: -0.398

RRIRIRPPRLPRPRPRPILIPRP
shrunken log2 fold change: -0.097

RRIRIRPPRLPRPRPRPIMNPRP
shrunken log2 fold change: -1.27

RRIRIRPPRLPRPRPRPIMQPRP
shrunken log2 fold change: -0.557

RRIRIRPPRLPRPRPRPINTPRP
shrunken log2 fold change: -0.954

RRIRIRPPRLPRPRPRPIPGPRP
shrunken log2 fold change: -0.191

RRIRIRPPRLPRPRPRPIQAPRP
shrunken log2 fold change: -0.209

RRIRIRPPRLPRPRPRPIQVPRP
shrunken log2 fold change: -0.071

RRIRIRPPRLPRPRPRPIRNPRP
shrunken log2 fold change: -0.236
